According to patent US10640556B2, “Anti amphiregulin antibodies, compositions comprising same and uses thereof” (Yeda Research and Development Co. Ltd., priority 2015, dated 2020):

Tests used:
EGFR [1] = target: T1, EGFR (Homo sapiens, UniProt P00533); assay: Ligand displacement of radiolabeled EGF on MCAS cells; type: binding; parameters: endogenous in cells; host or cells: MCAS, MLS, H358, A549; details: displacement of 125I-EGF (50 ng/mL), 3 hours on ice
Procedure: FIGS. 2A-2F illustrate that AREG is a low affinity ligand that induces limited receptor downregulation, as well as weak ubiquitination and degradation of EGFR. […] The cells were later washed and lysed, and the associated radioactivity was determined. The extent of ligand displacement (mean±range of triplicates) was plotted with respect to binding in the absence of an unlabeled ligand; FIG. 2B is a graph showing results of MCAS ovarian cells incubated in a 12 well plate and starved overnight for serum factors. […] The cells were later washed and lysed in 1 N NaOH. Cell-associated radioactivity was determined. […] Washed immunocomplexes, along with whole extracts, were immunoblotted with the indicated antibodies.
For ligand displacement assays, cells were grown in 12-well plates and serum-starved for 12-15 hours. […] The cells were later washed, lysed and their radioactivity counted.

EGFR [2] = target: T1, EGFR; assay: Ligand-induced receptor ubiquitination assay (MCAS, MLS, H358, A549 cells); type: cell-based; parameters: endogenous in cells; host or cells: MCAS, MLS, H358, A549; details: 10 minutes
Procedure: (§1) The cells were later washed and lysed, and the associated radioactivity was determined. […] The cells were later washed and lysed in 1 N NaOH. Cell-associated radioactivity was determined. […] Washed immunocomplexes, along with whole extracts, were immunoblotted with the indicated antibodies.
For determination of ligand-induced receptor ubiquitination, cells were extracted in lysis buffer (50 mM HEPES pH 7.5, 150 mM NaCl, 10% glycerol, 1% Triton X-100, 1 mM EDTA, 1 mM EGTA, 10 mM NaF and 30 mM 3-glycerol phosphate) with freshly added 0.2 mM Na3VO4, a protease inhibitor cocktail and 2 mM N-ethylmaleimide (NEM). Twenty μL of protein G agarose beads and 1 μg of antibody were added to 500 μg of protein lysate. After a 2 hour incubation at 4° C., the immunoprecipitates were collected by centrifugation at 14,000 rpm at 4° C. for 1 minute. The supernatant was discarded and the pellet was washed thrice, prior to electrophoresis.

EGFR [3] = target: T1, EGFR; assay: Receptor downregulation assay in MCAS cells; type: cell-based; parameters: endogenous in cells; host or cells: MCAS, MLS, H358, A549; details: ligand 50 ng/ml
Procedure: as §1
(§2) At the end of the incubation period, the cells were placed on ice, washed with ice cold medium and subjected to mild acid wash (0.2 M Na-acetate buffer, pH 4.5, and 0.5 M NaCl) for 2 minutes, followed by 2 washes in ice cold medium. […] Finally, cells were lysed in 1 N NaOH, and their radioactivity was determined.

[4] = system: feedback regulatory components of the EGFR signaling pathways; assay: qPCR of feedback regulators of EGFR signaling in MCF10A cells; type: cell-based, human
Procedure: FIGS. 3A-3F illustrate that amphiregulin acts as a weak inducer of transcription-mediated feedback regulatory loops of EGFR signaling. […] Shown are mRNA profiles representative of two independent biological repeats.
Total RNA was extracted using the PerfectPure RNA Cultured Cell Kit (5-prime) according to the manufacturer's instructions. Total RNA quantity and quality were determined using the NanoDrop® ND-1000 Spectrophotometer. Complementary DNA was synthesized using the High Capacity Reverse Transcription kit (Applied Biosystems, Life Technologies). Primers for the positive (EREG, TGF-alpha and HB-EGF), negative regulators (MIG6/RALT, DUSP1 and DUSP6) and beta2-microglobulin (B2M) were as previously described (Lauriola M et al., (2014) Nat Commun. 5: 5073). The KiCqStart primers from Sigma-Aldrich were used to detect the levels of human AREG (H_AREG_3). Real-time qPCR analysis was performed with SYBR Green (Applied Biosystems) and specific primers on the StepOne Plus Real-Time PCR system (Applied Biosystems). qPCR signals (cT) were normalized to B2M.

EGFR [5] = target: T1, EGFR; assay: Receptor downregulation assay in MCF10A cells; type: cell-based; parameters: endogenous in cells; details: AREG 1 ng/mL or 100 ng/mL
Procedure: FIGS. 2G-2H illustrate that AREG is a low affinity ligand able to induce only limited receptor downregulation in normal epithelial cells. FIG. 2G is a graph illustrating results of the immortalized human mammary cell line MCF10A used for ligand displacement assays. […] The cells were later washed and lysed, and the associated radioactivity was determined. The extent of ligand displacement (mean±range of triplicates) is depicted; and FIG. 2H is a graph illustrating results of MCF10A cells grown in 12 well plates and starved overnight for serum factors. […] The cells were later washed, lysed in 1N NaOH and their radioactivity was determined. Averages of triplicates and S.D. values (bars) are presented.
as §2

murine AREG = target: T2, murine AREG (Mus musculus, UniProt P31955); assay: ELISA on plates coated with murine AREG; type: binding
T2 construct: purchased Peprotech
T2 sequence (P31955 94-191 limits assumed): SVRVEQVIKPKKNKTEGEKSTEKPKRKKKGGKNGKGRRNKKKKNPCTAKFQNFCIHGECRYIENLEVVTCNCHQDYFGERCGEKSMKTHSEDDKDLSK
Procedure: FIG. 9A—96 well plates were coated with the indicated ligands (400 ng/mL), including a murine HB-EGF fused to thioredoxin. Plates were incubated for 2 hours with 3 different mAbs specific to AREG (as indicated). Thereafter, wells were incubated for two hours with an anti-mouse antibody conjugated to HRP, followed by a 30 minute incubation with ATBS. Signals were determined using an ELISA reader (set at 415 nm). […] Thereafter, wells were incubated for two hours with an anti-mouse antibody conjugated to HRP, followed by a 30-min incubation with ATBS. Signals were determined using an ELISA reader (set at 415 nm). […] 96-well plates were coated with decreasing concentrations (400, 200, 100, 50, 25 and 10 ng/mL) of the indicated 3 ligands, and then incubated for 2 hours with three different mAbs specific to AREG (AR30, AR37 and AR558) at […]. Thereafter, wells were incubated for two hours with an anti-mouse antibody conjugated to HRP, followed by a 20-min incubation with ATBS. Signals were determined using an ELISA reader (set at 420 nm).

human AREG = target: T3, human AREG (Homo sapiens, UniProt P15514); assay: Antigenic determinant comparison of anti-AREG mAbs; type: binding; details: data not shown
T3 sequence (P15514 101-198 limits assumed): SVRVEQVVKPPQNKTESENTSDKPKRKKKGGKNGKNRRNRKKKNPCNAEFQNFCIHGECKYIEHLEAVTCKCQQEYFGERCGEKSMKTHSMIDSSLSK

EGFR [6] = assay: AREG-induced EGFR phosphorylation in HeLa cells (immunoblot); type: cell-based, human; details: AREG 100 ng/ml, mAb 0.1-50 μg/ml, FIG. 10A
Procedure: FIGS. 6A-6F illustrate AR30, an anti-AREG monoclonal antibody, that inhibits auto-phosphorylation of EGFR. FIG. 6A is a photograph of a Coomassie blue staining of an acrylamide gel showing a purified fraction of AREG isolated from bacteria and purified on a NiNTA column. The molecular weight marker lane indicates a 15 kilodalton band; FIG. 6B, cells were seeded in a 24 well plate, washed and incubated with increasing concentrations of the purified TRX-AREG fusion protein (8.5, 85, 850, 8500 ng/ml). […] Following a 10-min long incubation, the cells were lysed and cleared extracts immunoblotted (IB) with an anti-phosphotyrosine antibody (PY-99); FIG. 6C, 96 well plates were coated with the indicated ligands (0.1 μg/ml), and then incubated for 3 hours with three different mAbs specific to AREG. Thereafter, wells were incubated for two hours with an anti-mouse antibody conjugated to HRP, followed by a 30 minutes incubation with ATBS. […] Serum from non-immunized mice was used as a negative control; FIG. 6E, HeLa cells were pre-incubated with (or without) mAb AR30 (20 μg/mL) and increasing concentrations of AREG. Thereafter, whole cell lysates were immunoblotted (IB) using an antibody specific to the phosphorylated form of EGFR (tyrosine 1068) or an antibody to EGFR; and FIG. 6F, HeLa cells were incubated with (or without) AREG (100 ng/mL) in the presence of increasing concentrations of mAb AR30 (5, 10, 20 and 50 μg/mL). Thereafter, cells were lysed and cleared extracts immunoblotted (IB) using the indicated antibodies.
FIG. 10A illustrates that anti-AREG mAbs inhibit ligand-induced activation of EGFR. HeLa cells were incubated with (or without) AREG (100 ng/ml) in the presence of increasing concentrations of mAb AR30, mAb AR 37 or mAb AR558 (0.1, 0.2, 0.5, 0.75, 1.5, 3.5, 6.25, 12.5, 25 and 50 μg/ml). Thereafter, cells were lysed and cleared extracts immunoblotted (IB) using the indicated antibodies, including an antibody specific to the phosphorylated (active) for of EGFR (pEGFR).

MCF10A cells = assay: MTS proliferation assay of MCF10A cells; type: cell-based, human; details: 72 h, absence or presence of AREG, relatively high mAb concentrations
Procedure: Proliferation assays using MTS were performed on MCF10A cells (1,000 cells per well). C ells were plated on the day before and treated for 72 h with the indicated mAbs (1, 5, 10, 20 or 50 ug/mL). Increasing concentrations of the indicated mAbs (either alone or in combination with AREG) were used in medium supplemented with 1% serum and AREG (either at 10 or 100 ng/mL).

[7] = system: Cal-27 human head and neck cancer cells; assay: Cal-27 head and neck tumor xenograft in nude mice; type: in vivo; details: Cal-27 tumors, 300 μg per injection intraperitoneally twice a week
Procedure: Female nude mice were inoculated subcutaneously with Cal-27 human head and neck cancer cells (2×10^6). Once tumors became palpable (5-7 days) mice were randomized and intraperitoneally injected with saline (Control), or with anti-AR mAbs: AR30, AR37 or AR558 (each at 300 μg per injection). Mice were treated with mAbs twice a week and tumor volume was followed. Shown are averages and SD values from at least 5 mice per group.
To test the ability of anti-AREG antibodies to reduce growth of human tumor cells implanted in immunocompromised mice, Cal 27 tumor cells were used which were inoculated subcutaneously and randomized for treatment after tumors became palpable. […] Furthermore, studies testing pairs of two mAbs illustrate their enhanced anti-tumor activities (data not shown), this can be attributed to the fact that the mAbs bind to distinct antigenic determinants of amphiregulin.

Molecule | lower binding affinity compared to EGF (EGFR [1]) | ubiquitination of EGFR (EGFR [2]; ligand 100 ng/mL, MCAS, MLS, H358, A549 cells) | ubiquitination of EGFR (EGFR [2]; ten-fold higher concentration (1 μg/mL)) | EGFR downregulation (EGFR [3]) | induction of feedback regulator transcripts (qPCR) ([4]; ligand 10 ng/ml) | induction of feedback regulator transcripts (qPCR) ([4]; ligand 100 ng/ml) | EGFR downregulation (EGFR [5]) | recognition of murine AREG (ELISA) (murine AREG; ligand coated at 400 ng/mL, FIG. 9A) | recognition of murine AREG (ELISA) (murine AREG; ligand coated at 400-10 ng/mL, FIG. 9C) | antigenic determinant targeted (human AREG) | AREG-induced phosphorylation of EGFR (EGFR [6]) | inhibition of proliferation (MCF10A cells) | tumor growth [7]
AREG: amphiregulin, low-affinity EGF-family ligand of EGFR | approximately 100 fold | failed to do so | comparable levels of receptor ubiquitination as EGF and TGF-alpha | approximately 30% | hardly detectable signals | clear, time dependent transcription of the six tested genes | effective downregulation of EGFR was observed only when testing very high concentrations |  |  |  |  |  | 
AR37: anti-AREG monoclonal antibody from AREG knockout mice; heavy chain SEQ ID NO: 62, light chain SEQ ID NO: 93 (antibody, not fully specified; AR37 heavy chain IgG complete amino acids coding sequence; (35)..(35) Xaa can be any naturally occurring amino acid; (73)..(73) Xaa can be any naturally occurring amino acid; AR37 light chain (IgG) complete amino acids coding sequence) heavy: EVQLVESGGDLVKPGGSLKLSCAASGFTFSNSGMXWFRLTPDKRLEWVATISSGSTYTFYPDTVKGRFIISRXNAKNTLYLQMSSLKSEDTAIYYCVREIWPVWGAGTTITVSSAKT light: QAVVTQESALSTSPGETVTLTCRSSTGAVTTSNYANWVQEKPDHLFTGLLGDTDNRPPGVPARFSGSLLGDKAALTITGAQTEDEAIYFCALWYSNHWVFGGGTKLTVL |  |  |  |  |  |  |  | recognized the murine molecule better than the other two mAbs tested | recognised the murine molecule | engages a different determinant of human AREG | low concentrations of the antibodies were sufficient for blocking | Moderate inhibition | comparably inhibit tumor growth
